Test results published in article PMC8003784, “Two Key Amino Acids Variant of α-L-arabinofuranosidase from Bacillus subtilis Str. 168 with Altered Activity for Selective Conversion Ginsenoside Rc to Rd” (Molecules, 2021).

Substrate: O=[N+]([O-])c1ccc(O[C@@H]2O[C@@H](CO)[C@H](O)[C@H]2O)cc1
Test: purified protein
Assay type: biochemical, Bacillus subtilis
Conditions: pH 5, 40 °C, 50 mM citric acid/sodium citrate

Row | Protein | Km | kcat | kcat/Km
1 | BsAbfA (Bacillus subtilis subsp. subtilis str. 168) (protein, full ORF, codon-optimised, N-terminal His-tag (pET-28a), E. coli BL21(DE3), Ni-NTA purified, approx. 60 kDa; GH51) MKKARMIVDKEYKIGEVDKRIYGSFIEHMGRAVYEGIYEPDHPEADEDGFRKDVQSLIKELQVPIIRYPGGNFLSGYNWEDGVGPVENRPRRLDLAWQTTETNEVGTNEFLSWAKKVNTEVNMAVNLGTRGIDAARNLVEYCNHPKGSYWSDLRRSHGYEQPYGIKTWCLGNEMDGPWQIGHKTADEYGRLAAETAKVMKWVDPSIELVACGSSNSGMPTFIDWEAKVLEHTYEHVDYISLHTYYGNRDNNLPNYLARSMDLDHFIKSVAATCDYVKAKTRSKKTINLSLDEWNVWYHSNEADKKVEPWITARPILEDIYNFEDALLVGSLLITMLQHADRVKIACLAQLVNVIAPIMTEKGGEAWRQPIFYPYMHASVYGRGESLKPLISSPKYDCSDFTDVPYVDAAVVYSEEEETLTIFAVNKAEDQMETEISLRGFESYQIAEHIVLEHQDIKATNQHNRKNVVPHSNGSSSVSENGLTAHFTPLSWNVIRLKKQS | 600 ± 80 µM | 109 ± 8.6 s⁻¹ | 182000 ± 6900 M⁻¹ s⁻¹
2 | BsAbfA (Bacillus subtilis subsp. subtilis str. 168; E292D) (protein, full ORF, codon-optimised, N-terminal His-tag (pET-28a), E. coli BL21(DE3), Ni-NTA purified, approx. 60 kDa; GH51) MKKARMIVDKEYKIGEVDKRIYGSFIEHMGRAVYEGIYEPDHPEADEDGFRKDVQSLIKELQVPIIRYPGGNFLSGYNWEDGVGPVENRPRRLDLAWQTTETNEVGTNEFLSWAKKVNTEVNMAVNLGTRGIDAARNLVEYCNHPKGSYWSDLRRSHGYEQPYGIKTWCLGNEMDGPWQIGHKTADEYGRLAAETAKVMKWVDPSIELVACGSSNSGMPTFIDWEAKVLEHTYEHVDYISLHTYYGNRDNNLPNYLARSMDLDHFIKSVAATCDYVKAKTRSKKTINLSLDDWNVWYHSNEADKKVEPWITARPILEDIYNFEDALLVGSLLITMLQHADRVKIACLAQLVNVIAPIMTEKGGEAWRQPIFYPYMHASVYGRGESLKPLISSPKYDCSDFTDVPYVDAAVVYSEEEETLTIFAVNKAEDQMETEISLRGFESYQIAEHIVLEHQDIKATNQHNRKNVVPHSNGSSSVSENGLTAHFTPLSWNVIRLKKQS | 700 ± 60 µM | 0.9 ± 0.05 s⁻¹ | 1300 ± 30 M⁻¹ s⁻¹
3 | BsAbfA (Bacillus subtilis subsp. subtilis str. 168; E173D) (protein, full ORF, codon-optimised, N-terminal His-tag (pET-28a), E. coli BL21(DE3), Ni-NTA purified, approx. 60 kDa; GH51) MKKARMIVDKEYKIGEVDKRIYGSFIEHMGRAVYEGIYEPDHPEADEDGFRKDVQSLIKELQVPIIRYPGGNFLSGYNWEDGVGPVENRPRRLDLAWQTTETNEVGTNEFLSWAKKVNTEVNMAVNLGTRGIDAARNLVEYCNHPKGSYWSDLRRSHGYEQPYGIKTWCLGNDMDGPWQIGHKTADEYGRLAAETAKVMKWVDPSIELVACGSSNSGMPTFIDWEAKVLEHTYEHVDYISLHTYYGNRDNNLPNYLARSMDLDHFIKSVAATCDYVKAKTRSKKTINLSLDEWNVWYHSNEADKKVEPWITARPILEDIYNFEDALLVGSLLITMLQHADRVKIACLAQLVNVIAPIMTEKGGEAWRQPIFYPYMHASVYGRGESLKPLISSPKYDCSDFTDVPYVDAAVVYSEEEETLTIFAVNKAEDQMETEISLRGFESYQIAEHIVLEHQDIKATNQHNRKNVVPHSNGSSSVSENGLTAHFTPLSWNVIRLKKQS | 200 ± 50 µM | 0.5 s⁻¹ | 2500 ± 60 M⁻¹ s⁻¹
4 | BsAbfA (Bacillus subtilis subsp. subtilis str. 168; E173Q) (protein, full ORF, codon-optimised, N-terminal His-tag (pET-28a), E. coli BL21(DE3), Ni-NTA purified, approx. 60 kDa; GH51) MKKARMIVDKEYKIGEVDKRIYGSFIEHMGRAVYEGIYEPDHPEADEDGFRKDVQSLIKELQVPIIRYPGGNFLSGYNWEDGVGPVENRPRRLDLAWQTTETNEVGTNEFLSWAKKVNTEVNMAVNLGTRGIDAARNLVEYCNHPKGSYWSDLRRSHGYEQPYGIKTWCLGNQMDGPWQIGHKTADEYGRLAAETAKVMKWVDPSIELVACGSSNSGMPTFIDWEAKVLEHTYEHVDYISLHTYYGNRDNNLPNYLARSMDLDHFIKSVAATCDYVKAKTRSKKTINLSLDEWNVWYHSNEADKKVEPWITARPILEDIYNFEDALLVGSLLITMLQHADRVKIACLAQLVNVIAPIMTEKGGEAWRQPIFYPYMHASVYGRGESLKPLISSPKYDCSDFTDVPYVDAAVVYSEEEETLTIFAVNKAEDQMETEISLRGFESYQIAEHIVLEHQDIKATNQHNRKNVVPHSNGSSSVSENGLTAHFTPLSWNVIRLKKQS | 400 ± 70 µM | 2.5 ± 2.1 s⁻¹ | 6300 ± 90 M⁻¹ s⁻¹
5 | BsAbfA (Bacillus subtilis subsp. subtilis str. 168; E292Q) (protein, full ORF, codon-optimised, N-terminal His-tag (pET-28a), E. coli BL21(DE3), Ni-NTA purified, approx. 60 kDa; GH51) MKKARMIVDKEYKIGEVDKRIYGSFIEHMGRAVYEGIYEPDHPEADEDGFRKDVQSLIKELQVPIIRYPGGNFLSGYNWEDGVGPVENRPRRLDLAWQTTETNEVGTNEFLSWAKKVNTEVNMAVNLGTRGIDAARNLVEYCNHPKGSYWSDLRRSHGYEQPYGIKTWCLGNEMDGPWQIGHKTADEYGRLAAETAKVMKWVDPSIELVACGSSNSGMPTFIDWEAKVLEHTYEHVDYISLHTYYGNRDNNLPNYLARSMDLDHFIKSVAATCDYVKAKTRSKKTINLSLDQWNVWYHSNEADKKVEPWITARPILEDIYNFEDALLVGSLLITMLQHADRVKIACLAQLVNVIAPIMTEKGGEAWRQPIFYPYMHASVYGRGESLKPLISSPKYDCSDFTDVPYVDAAVVYSEEEETLTIFAVNKAEDQMETEISLRGFESYQIAEHIVLEHQDIKATNQHNRKNVVPHSNGSSSVSENGLTAHFTPLSWNVIRLKKQS | 700 ± 90 µM | 1.6 ± 0.04 s⁻¹ | 2300 ± 50 M⁻¹ s⁻¹
